# Reference: the supplement of paper PMC9112550, “Optimization of the antimicrobial peptide Bac7 by deep mutational scanning” (BMC Biology, 2022)
# Test system: Escherichia coli TOP10
# Experiment: shrunken log2 fold change of peptide-encoding DNA abundance (4.5 h post-induction vs induction); higher = less antimicrobial activity (less host growth inhibition)
# Conditions: time post-induction: 4.5 h; library: site-saturation at positions 5, 18, 19, 20
# 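Note: peptides expressed intracellularly from a pBAD plasmid library in pooled LB shake-flask culture, induced with 0.3% L-arabinose, DNA abundance read by NGS, three biological replicates, DESeq2 with apeglm shrinkage.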
row,Sequence,shrunken log2 fold change
1,RRIRWRPPRLPRPRPRPHDNPRP,-0.114
2,RRIRWRPPRLPRPRPRPHEDPRP,0.185
3,RRIRWRPPRLPRPRPRPHESPRP,-0.262
4,RRIRWRPPRLPRPRPRPHINPRP,-0.491
5,RRIRWRPPRLPRPRPRPHIRPRP,0.00375
6,RRIRWRPPRLPRPRPRPHISPRP,0.00485
7,RRIRWRPPRLPRPRPRPHLQPRP,0.103
8,RRIRWRPPRLPRPRPRPHLTPRP,-0.19
9,RRIRWRPPRLPRPRPRPHMPPRP,-0.768
10,RRIRWRPPRLPRPRPRPHMYPRP,-0.443
11,RRIRWRPPRLPRPRPRPHPCPRP,0.12
12,RRIRWRPPRLPRPRPRPHQAPRP,0.257
13,RRIRWRPPRLPRPRPRPHRFPRP,0.077
14,RRIRWRPPRLPRPRPRPHRKPRP,0.113
15,RRIRWRPPRLPRPRPRPHRYPRP,-0.15
16,RRIRWRPPRLPRPRPRPHSNPRP,-0.09
17,RRIRWRPPRLPRPRPRPHTQPRP,-0.56
18,RRIRWRPPRLPRPRPRPHVHPRP,-0.126
19,RRIRWRPPRLPRPRPRPHWDPRP,-0.0409
20,RRIRWRPPRLPRPRPRPHWFPRP,0.0392
21,RRIRWRPPRLPRPRPRPIAHPRP,-0.074
22,RRIRWRPPRLPRPRPRPIAIPRP,-0.347

row,Sequence,shrunken log2 fold change
1,RRIRWRPPRLPRPRPRPIASPRP,0.104
2,RRIRWRPPRLPRPRPRPICAPRP,0.291
3,RRIRWRPPRLPRPRPRPICSPRP,-0.199
4,RRIRWRPPRLPRPRPRPIDAPRP,0.0128
5,RRIRWRPPRLPRPRPRPIDIPRP,-0.535
6,RRIRWRPPRLPRPRPRPIEGPRP,-0.000175
7,RRIRWRPPRLPRPRPRPIFLPRP,-0.509
8,RRIRWRPPRLPRPRPRPIGKPRP,-0.0958
9,RRIRWRPPRLPRPRPRPIGRPRP,-0.0158
10,RRIRWRPPRLPRPRPRPIHEPRP,0.041
11,RRIRWRPPRLPRPRPRPIHNPRP,-0.458
12,RRIRWRPPRLPRPRPRPIISPRP,-0.14
13,RRIRWRPPRLPRPRPRPIKQPRP,-0.00809
14,RRIRWRPPRLPRPRPRPIKYPRP,-0.744
15,RRIRWRPPRLPRPRPRPILKPRP,-0.281
16,RRIRWRPPRLPRPRPRPIMFPRP,-0.189
17,RRIRWRPPRLPRPRPRPINSPRP,-0.498
18,RRIRWRPPRLPRPRPRPIPGPRP,0.0313
19,RRIRWRPPRLPRPRPRPIPVPRP,-0.11
20,RRIRWRPPRLPRPRPRPIRQPRP,-0.0309
21,RRIRWRPPRLPRPRPRPITNPRP,-0.0654
22,RRIRWRPPRLPRPRPRPIVGPRP,-0.0113

row,Sequence,shrunken log2 fold change
1,RRIRWRPPRLPRPRPRPIVIPRP,-0.353
2,RRIRWRPPRLPRPRPRPIYEPRP,-0.355
3,RRIRWRPPRLPRPRPRPKAHPRP,0.197
4,RRIRWRPPRLPRPRPRPKCCPRP,0.0888
5,RRIRWRPPRLPRPRPRPKCLPRP,-0.197
6,RRIRWRPPRLPRPRPRPKDSPRP,0.118
7,RRIRWRPPRLPRPRPRPKFGPRP,0.206
8,RRIRWRPPRLPRPRPRPKGIPRP,-0.0761
9,RRIRWRPPRLPRPRPRPKHCPRP,0.0806
10,RRIRWRPPRLPRPRPRPKHKPRP,0.0536
11,RRIRWRPPRLPRPRPRPKIEPRP,-0.0252
12,RRIRWRPPRLPRPRPRPKKIPRP,0.0449
13,RRIRWRPPRLPRPRPRPKKQPRP,0.176
14,RRIRWRPPRLPRPRPRPKLWPRP,1.06
15,RRIRWRPPRLPRPRPRPKMEPRP,0.577
16,RRIRWRPPRLPRPRPRPKNFPRP,-0.188
17,RRIRWRPPRLPRPRPRPKNPPRP,0.152
18,RRIRWRPPRLPRPRPRPKPHPRP,0.351
19,RRIRWRPPRLPRPRPRPKQHPRP,0.299
20,RRIRWRPPRLPRPRPRPKTEPRP,0.111
21,RRIRWRPPRLPRPRPRPKTPPRP,0.894
22,RRIRWRPPRLPRPRPRPKTRPRP,0.654

row,Sequence,shrunken log2 fold change
1,RRIRWRPPRLPRPRPRPKVGPRP,0.0351
2,RRIRWRPPRLPRPRPRPKVHPRP,-0.136
3,RRIRWRPPRLPRPRPRPKVIPRP,-0.0585
4,RRIRWRPPRLPRPRPRPKVQPRP,0.00116
5,RRIRWRPPRLPRPRPRPKVVPRP,0.352
6,RRIRWRPPRLPRPRPRPKVWPRP,0.68
7,RRIRWRPPRLPRPRPRPKWRPRP,0.428
8,RRIRWRPPRLPRPRPRPKYHPRP,0.185
9,RRIRWRPPRLPRPRPRPLAHPRP,0.29
10,RRIRWRPPRLPRPRPRPLAQPRP,0.469
11,RRIRWRPPRLPRPRPRPLAWPRP,0.474
12,RRIRWRPPRLPRPRPRPLDAPRP,0.354
13,RRIRWRPPRLPRPRPRPLDDPRP,0.454
14,RRIRWRPPRLPRPRPRPLDRPRP,0.146
15,RRIRWRPPRLPRPRPRPLEGPRP,-0.158
16,RRIRWRPPRLPRPRPRPLENPRP,0.0135
17,RRIRWRPPRLPRPRPRPLFLPRP,-0.318
18,RRIRWRPPRLPRPRPRPLGWPRP,2.31
19,RRIRWRPPRLPRPRPRPLHAPRP,0.499
20,RRIRWRPPRLPRPRPRPLHEPRP,0.148
21,RRIRWRPPRLPRPRPRPLIYPRP,-0.299
22,RRIRWRPPRLPRPRPRPLKEPRP,-0.0713

row,Sequence,shrunken log2 fold change
1,RRIRWRPPRLPRPRPRPLLHPRP,0.493
2,RRIRWRPPRLPRPRPRPLMFPRP,-0.122
3,RRIRWRPPRLPRPRPRPLNSPRP,-0.107
4,RRIRWRPPRLPRPRPRPLPFPRP,-0.387
5,RRIRWRPPRLPRPRPRPLPMPRP,0.105
6,RRIRWRPPRLPRPRPRPLQCPRP,0.101
7,RRIRWRPPRLPRPRPRPLRMPRP,0.531
8,RRIRWRPPRLPRPRPRPLRPPRP,0.923
9,RRIRWRPPRLPRPRPRPLSWPRP,0.0993
10,RRIRWRPPRLPRPRPRPLTLPRP,-0.00729
11,RRIRWRPPRLPRPRPRPLTVPRP,-0.0954
12,RRIRWRPPRLPRPRPRPLVAPRP,0.815
13,RRIRWRPPRLPRPRPRPLWRPRP,3.71
14,RRIRWRPPRLPRPRPRPLYHPRP,-0.307
15,RRIRWRPPRLPRPRPRPMDDPRP,-0.172
16,RRIRWRPPRLPRPRPRPMDIPRP,-0.175
17,RRIRWRPPRLPRPRPRPMEKPRP,0.0685
18,RRIRWRPPRLPRPRPRPMFIPRP,-0.378
19,RRIRWRPPRLPRPRPRPMGKPRP,0.561
20,RRIRWRPPRLPRPRPRPMGMPRP,0.403
21,RRIRWRPPRLPRPRPRPMHGPRP,-0.138
